# Test results as given in PMC7435863, “Single Residue Substitution at N-Terminal Affects Temperature Stability and Activity of L2 Lipase” (Molecules, 2020).
# Where a chain is given by its changes, count along the chain named. Names may count otherwise.
# B1: wt-L2 lipase (Bacillus sp. L2) (protein)
# chain: ASLRANDAPIVLLHGFTGWGREEMFGFKYWGGVRGDIEQWLNDNGYRTYTLAVGPLSSNWDRACEAYAQLVGGTVDYGAAHAAKHGHARFGRTYPGLLPELKRGGRIHIIAHSQGGQTARMLVSLLENGSQEEREYAKAHNVSLSPLFEGGHHFVLSVTTIATPHDGTTLVNMVDFTDRFFDLQKAVLEAAAVASNVPYTSQVYDFKLDQWGLRRQPGESFDHYFERLKRSPVWTSTDTARYDLSVSGAEKLNQWVQASPNTYYLSFSTERTYRGALTGNHYPELGMNAFSAVVCAPFLGSYRNPTLGIDDRWLENDGIVNTVSMNGPKRGSSDRIVPYDGTLKKGVWNDMGTYNVDHLEIIGVDPNPSFDIRAFYLRLAEQLASLLP
# notes: recombinant from pET32(B)+ in E. coli BL21(DE3), Ni Sepharose purified
# B2: wt-L2 lipase (Bacillus sp. L2; A36V) (protein)
# chain: B1 chain with A8V
# notes: as for B1
# B3: wt-L2 lipase (Bacillus sp. L2; A36P) (protein)
# chain: B1 chain with A8P
# notes: as for B1
# B4: wt-L2 lipase (Bacillus sp. L2; A36E) (protein)
# chain: B1 chain with A8E
# notes: as for B1
# Substrate: CCCCCCCCCC(=O)Oc1ccc([N+](=O)[O-])cc1
# Test: pNP ester hydrolysis, Lineweaver-Burk
# Format: biochemical, Bacillus sp. L2
# Conditions: 70 °C (optimum temperature), 0.6-5.0 mM substrate
# Source text: pNP ester hydrolysis, Lineweaver-Burk on wt-L2 lipase
Protein,Km [µM],kcat [s⁻¹],kcat/Km [M⁻¹ s⁻¹],Vmax [µM/min]
B1,1080,175,162000,
B2,520,136,207000,81300
B3,1340,127,94900,76300
B4,4380,120,27200,71900
